This note sets out measurements from PMC10980349 (The Plant Cell, 2023).

Series [1] concerns the target microtubules assembled from porcine tubulin (porcine) (UniProt P02550). Briefly: co-sedimentation.
The series “SEC-MALS” concerns the molecule itself. Briefly: SEC-MALS. (In gel filtration, larger molecules generally elute earlier.)

B1: SPR2(1 to 500)-GFP (domain or fragment)
chain: MSTPTTSGSAAKPTRPARSSSLATRSCSNSGSLTSFQAMVELKQKILTSISKLADRDTYQIAVEDLEKTIQSLTPETLPMFLNCLYDSCSDPKPAVKKECLHLLSYVCSLHCDSTAAHLTKIIAQIVKRLKDSDSGVRDACRDTIGALSGIYLKGKEEGTNTGSASLAVGLFVKPLFEAMGEQNKVVQSGASMCMARMVESAASPPVTSFQKLCPRICKLLSNSSFLAKASLLPVVSSLSQVGAIAPQSLESLLESIHDCLGSTDWVTRKAAAETLTALASHSSGLIKEKTDSTITVLETCRFDKIKPVRESVTEALQLWKKISGKYVDGASDDSKLSASEQLGSEKNGEKRSNLADLMKKEASDGSTLSPDSASKGKGCFPEKAVGLLKKKAPVLSDKDFNPEFFQRLERRQSVEVVVPRRCKNNDEEESGLDDLNAMGSSNRLKNTQADDKQVKGRFDGNGSQARTSGDDKAGVVNGKETPGHHAPVSNTDNQSEGSF
B1 gave a Kd in series [1] of 17.4 µM.

B2: full-length SPR2 (SEC-MALS sample) (natural protein, Arabidopsis thaliana, UniProt Q9T041 1-864, looked up)
chain: MSTPTTSGSAAKPTRPARSSSLATRSCSNSGSLTSFQAMVELKQKILTSISKLADRDTYQIAVEDLEKTIQSLTPETLPMFLNCLYDSCSDPKPAVKKECLHLLSYVCSLHCDSTAAHLTKIIAQIVKRLKDSDSGVRDACRDTIGALSGIYLKGKEEGTNTGSASLAVGLFVKPLFEAMGEQNKVVQSGASMCMARMVESAASPPVTSFQKLCPRICKLLSNSSFLAKASLLPVVSSLSQVGAIAPQSLESLLESIHDCLGSTDWVTRKAAAETLTALASHSSGLIKEKTDSTITVLETCRFDKIKPVRESVTEALQLWKKISGKYVDGASDDSKLSASEQLGSEKNGEKRSNLADLMKKEASDGSTLSPDSASKGKGCFPEKAVGLLKKKAPVLSDKDFNPEFFQRLERRQSVEVVVPRRCKNNDEEESGLDDLNAMGSSNRLKNTQADDKQVKGRFDGNGSQARTSGDDKAGVVNGKETPGHHAPVSNTDNQSEGSFTSNRGNWSAIQRQLLQLERQQTNLMNMLQEFIGGSHDSMVTLEGRVRGLERIVEDMARDLSISSGRRANLTAGFGKYNSFANYPTGKYNGRAPGERGSQTDGAMRGRMWNSDMADDWFIPPHAASRNGQAGPRRSPRSEQYENEHMGNGRRGWDNKASGTIRFGEGPSARSVWQASKDEATLEAIRVAGEDGAVPRPTRVAVAPEAEAMGDDDNEGQERDPIWVSWSNAMHSLRVGDIDAAYAEVLCAGDQHLVIKLMDKTGPSLDQMSNEIANEALNFISQFLLDHSLYDICLSWSQQLLELVLQDGADTFGVPMELKTEILYNLQDACSTMDPPEDWEGPAPEQLVVQLASVWEIDLQQFDK
On to B2, for which the “stoichiometry N” value in the series “SEC-MALS” amounted to 4.

Broadly, the Kd is the free concentration of one partner at which half of the binding sites on the other are occupied at equilibrium, for simple one-to-one binding. Read a high Kd as lower affinity. Broadly, the stoichiometry N is a count of units in the complex or per binding partner.
